Results taken from the Human Domainome abundance scans (Beltran et al. 2025).

B1: CD2-associated protein, residues 271 to 331; numbered along this chain, Q9Y5K6 (parent)
chain: KEYCRTLFAYEGTNEDELTFKEGEIIHLISKETGEAGWWRGELNGKEGVFPDNFAVQINEL

Variants of: B1
Test: abundance fitness (aPCA) (normalised: wild type 0, dead -1); higher = more abundant; growth selection in yeast, the domain comes from the species named
Settings: Homo sapiens

Abundance fitness of substitutions, site by site:
D16: S -0.003 | E -0.018 | H -0.008 | C -0.128 | I -0.699 | F -0.002 | L -0.091 | Y -0.072 | M -0.194 | A -0.061 | P -0.738 | K 0.026 | R -0.062 | G 0.051 | Q -0.105 | N 0.014
E11: C -0.256 | S -0.237 | T -0.216 | M -0.254 | G -0.384 | P -0.745 | Q -0.4 | D -0.122 | I -0.164 | V -0.157 | R -0.263 | F -0.151 | K -0.095 | H -0.151 | W -0.261 | A -0.234 | Y -0.19 | L -0.377
A9: H -0.076 | P -0.084 | D -0.011 | C -0.129 | R -0.144 | E -0.09 | N -0.013 | F -0.469 | G -0.283 | I -0.542 | T -0.268 | W -0.448 | L -0.599 | Y -0.309 | K -0.077 | S 0.029 | M -0.291 | Q -0.096
T13: Y -0.257 | D -0.185 | N -0.078 | A 0.066 | S -0.051 | E -0.042 | V -0.083 | Q 0.122 | G -0.018 | L -0.082 | K 0.108 | P -0.594 | W -0.475 | H -0.197 | I -0.183 | R 0.042 | C 0.038 | F -0.416
T6: H -0.695 | I -0.5 | C -0.614 | S -0.103 | Q -0.68 | Y -0.621 | L -0.88 | R -0.682 | G -0.528 | D -0.963 | F -0.889 | A -0.014 | E -0.698 | V -0.844 | M -0.474 | N -0.926 | W -1.15 | P -0.605 | K -0.607
N14: W -0.239 | K -0.033 | C 0.029 | M -0.172 | R -0.061 | S -0.024 | D -0.107 | Y -0.38 | G -0.087 | Q -0.012 | P -0.756 | V -0.421 | H -0.107 | T -0.041 | I -0.202 | L -0.4 | A -0.023 | E -0.159 | F -0.336
C4: R -0.62 | D -1.04 | S -0.791 | H -1.07 | Q -0.9 | V -0.354 | W -0.301 | I -0.113 | A -0.591 | K -0.64 | F -0.007 | M -0.23 | E -1.09 | L -0.046 | T -0.714 | G -0.707
F20: H -0.603 | Q -0.629 | C -0.793 | A -0.808 | M -0.714 | T -0.854 | K -0.665 | D -0.523 | E -0.91 | I -0.492 | Y -0.713 | P -0.893 | W -0.887 | L -0.709 | N -0.551 | S -0.564
Y3: V -0.537 | L -0.131 | W -0.661 | T -0.608 | Q -0.775 | N -0.292 | P -0.75 | M -0.372 | S -0.26
L18: N -0.761 | K -0.744 | F -0.685 | S -0.766 | H -0.843 | T -0.541 | V -0.524 | D -0.739 | A -0.485 | W -0.792 | C -0.913 | G -0.889 | Q -0.831 | R -0.816 | I -0.513 | M -0.335
F8: A 0.014 | V 0.004
